{
  "source": "patent EP3873932A1",
  "key": {"[1]": {"molecular_target": "human amyloidomas (all implanted human amyloid extracts)", "test": "in vivo microPET"}, "[2]": {"molecular_target": "human amyloidomas (all implanted human amyloid extracts)", "test": "in vivo microPET, 4 days after tracer injection"}, "[3]": {"molecular_target": "human amyloidomas of kappa subtypes", "test": "in vivo microPET of mice implanted with kappa subtype amyloid"}, "[4]": {"molecular_target": "human amyloidomas of lambda subtypes", "test": "in vivo microPET of mice implanted with lambda subtype amyloid"}},
  "data": [
    {"binder": "[124I]CAEL-101 (antibody, human IgG1, V domains shown, 124I radiolabel by the standard iodogen reaction (residues and chain not stated)) VH: QVQLKESGPGLVAPSQSLSITCTVSGFSLSSYGVSWVRQPPGKGLEWLGVIWGDGSTNYHPNLMSRLSISKDISKSQVLFKLNSLQTDDTATYYCVTLDYWGQGTSVTVSS VL: DVVMTQTPLSLPVSLGDQASISCRSSQSLVHRNGNTYLHWYLQKPGQSPKLLIYKVSNRFSGVPRDFSGSGSGTDFTLKISRVEAEDLGLYFCFQTTYVPNTFGGGTKLEIK", "values": [
      {"measurement": "T:B uptake (amyloid deposit-to-background)", "setting": "[1]", "value": "> 2.1"},
      {"measurement": "T:B ratio (amyloid deposit-to-background, SUVmax)", "setting": "[2]", "value": "2.1 to 4.2"},
      {"measurement": "T:B ratio (amyloid deposit-to-background, SUVmax)", "setting": "[3]", "value": 4.1},
      {"measurement": "T:B ratio (amyloid deposit-to-background, SUVmax)", "setting": "[4]", "value": 2.8}
    ]}
  ]
}
